Measured values taken from article PMC7954794, “Protein context shapes the specificity of SH3 domain-mediated interactions in vivo” (Nature Communications, 2021).

Assays:
[1] = system: PPIs identified as affected by the SH3 domain deletions; assay: Liquid DHFR-PCA low-throughput validation of PPIs affected by SH3 deletion (Fig. S1D-E); format: cell-based, Saccharomyces cerevisiae; conditions: label = prey, liquid DHFR-PCA, prey _1 = lost, _2 = gained in screen
Protocol: Liquid DHFR-PCA low-throughput experiments were performed to validate the PPIs identified as affected by the SH3 domain deletions in the high-throughput solid DHFR-PCA screen (256 PPIs weaker or lost and 116 PPIs stronger or gained following domain deletions). Mating and the diploid selection were performed as described for the large-scale experiment, with the exception that the plates were in 384 formats. Following the second diploid selection, diploid cells were inoculated in a 96 v-shaped well plate using a robotically manipulated 96 pin tool in a synthetic complete medium with MSG at pH 6.0 with NAT and HPH. After 48 h of growth, optical density (OD) was read using a TECAN Infinite F200 Pro, and dilutions to 1 OD in sterile nanopure water were prepared. Cells were then diluted to 0.1 OD by combining 25 µl of cell suspension at OD = 1 and 225 µl of PCA selection media without agar in a 96-wells plate. Plates were incubated at 30 °C in a TECAN Infinite M Nano and OD was monitored each 15 min for 72 h.

[2] = system: growth of yeast strains under 51 stress conditions; assay: Growth assays in 51 stress conditions (Fig. 1E-F, S2D, S5B); format: cell-based, Saccharomyces cerevisiae; design: key to Growth (Fig. S2D) / growth of ABP1 SH3-swapped strains in stress condition: log2 colony size, average of median per strain (growth score); conditions: ABP1 SH3-swapped strains
Protocol: All WT, SH3-deleted, KO (except for CDC25 which is the only essential SH3-containing gene in yeast), ABP1 SH3-swapped, and SLA1 SH3-shuffled strains were grown on omnitrays in 1536 formats and robotically manipulated with a pin tool (the DHFR F[1,2] bait strains were used except for the KO strains). Each strain was randomly positioned in 6 replicates per plate and two plates per condition were performed, for 12 replicates per strain in total. A border of two rows and two columns of WT strains (BY4741) around the plate was used to remove border effects. Strains were grown on YPD media for two days at 30 °C. They were then replicated on 51 different media that are described in the Supplementary Table 3 and were incubated at 37 °C in a spImager custom platform with images acquired every two hours for four days. The colony sizes from plate pictures were also measured with the R package “Gitter” and the output was manually inspected. Positions with an abnormality in colony circularity were removed. The colony sizes after 74 h of incubation at 37 °C were log2 transformed and used for the analyses. First, the differences between the two plate replicates were corrected to remove plate effects. The median colony size was calculated for each strain per plate. Strains with a difference in their median colony size of more than two between the two plate replicates were removed. Finally, the average of the median colony size was calculated for each strain per condition (growth score).

B1: YPL246C_2 (protein, UniProt Q12270 1-262, looked up)
Rhomboid-type serine protease …: MNWKSYVFPGGHPPAALTTGLVVFLTAIYLLSFIFALREDLSLAPESLFKLQMSRLSLYPLIHLSLPHLLFNVLAIWAPLNLFEETHGTVYTGVFLNLSALFAGILYCLLGKLLYPEALVAGASGWCFTLFAYYSFKESQIRPRTRIFRTDYSIPTLYTPLVLLVAIAVVIPGSSFWGHFFGLCVGYAIGYKESWFNKITPPGWIITKIEKSLDGLIRLIPWGIKYYRDEDIDRTKDYEPLMSTETPLPLHNDNSGTVLGTA
With B1 the “Ratio (Deletedscore / WTscore)” value ([1]; bait ABP1) was 1.339, the “Ratio (Deletedscore / WTscore)” value ([1]; bait LSB3) was 1.364 and the “Ratio (Deletedscore / WTscore)” value ([1]; bait SHO1) was 1.171.

B2: YOR039W_2 (protein, UniProt P38930 1-258, looked up)
Casein kinase II subunit beta': MGSRSENVGTVTREGSRVEQDDVLMDDDSDSSEYVDMWIDLFLGRKGHEYFCDVDPEYITDRFNLMNLQKTVSKFSYVVQYIVDDLDDSILENMTHARLEQLESDSRKLYGLIHARYIITIKGLQKMYAKYKEADFGRCPRVYCNLQQLLPVGLHDIPGIDCVKLYCPSCEDLYIPKSSRHSSIDGAYFGTSFPGMFLQAFPDMVPKHPTKRYVPKIFGFELHKQAQLTRWQELQRLKLVEKLESKDVDLTKSGGFKT
With B2 the “Ratio (Deletedscore / WTscore)” value ([1]; bait LSB3) was 1.116.

B3: ABP1 WT (protein, UniProt P15891 2-592, looked up)
Actin-binding protein: ALEPIDYTTHSREIDAEYLKIVRGSDPDTTWLIISPNAKKEYEPESTGSSFHDFLQLFDETKVQYGLARVSPPGSDVEKIIIIGWCPDSAPLKTRASFAANFAAVANNLFKGYHVQVTARDEDDLDENELLMKISNAAGARYSIQTSSKQQGKASTPPVKKSFTPSKSPAPVSKKEPVKTPSPAPAAKISSRVNDNNDDDDWNEPELKERDFDQAPLKPNQSSYKPIGKIDLQKVIAEEKAKEDPRLVQKPTAAGSKIDPSSDIANLKNESKLKRDSEFNSFLGTTKPPSMTESSLKNDDDKVIKGFRNEKSPAQLWAERKAKQNSGNAETKAEAPKPEVPEDEPEGEPDVKDLKSKFEGLAASEKEEEEMENKFAPPPKKSEPTIISPKPFSKPQEPVKAEEAEQPKTDYKKIGNPLPGMHIEADNEEEPEENDDDWDDDEDEAAQPPLPSRNVASGAPVQKEEPEQEEIAPSLPSRNSIPAPKQEEAPEQAPEEEIEEEAEEAAPQLPSRSSAAPPPPPRRATPEKKPKENPWATAEYDYDAAEDNELTFVENDKIINIEFVDDDWWLGELEKDGSKGLFPSNYVSLGN
In the case of B3, the “Growth (Fig. S2D)” value ([2]; Bathophenanthroline.0.1uM) is reported as 10.7779, the “Growth (Fig. S2D)” value ([2]; Bathophenanthroline.10uM) is reported as 10.6544 and the “Growth (Fig. S2D)” value ([2]; Bathophenanthroline.1uM) is reported as 10.7233. For the same molecule, the “Growth (Fig. S2D)” value ([2]; CaCl2.100mM) was 10.745, the “Growth (Fig. S2D)” value ([2]; CaCl2.250mM) was 10.6724 and the “Growth (Fig. S2D)” value ([2]; CaCl2.500mM) was 10.224. For the same molecule, the “Growth (Fig. S2D)” value ([2]; Caffein.10mM) was 9.987, the “Growth (Fig. S2D)” value ([2]; Caffein.2mM) was 10.9881 and the “Growth (Fig. S2D)” value ([2]; CdCl2.100uM) was 9.742. The “Growth (Fig. S2D)” value ([2]; CdCl2.10uM) was 10.8471, the “Growth (Fig. S2D)” value ([2]; CdCl2.50uM) was 10.1808 and the “Growth (Fig. S2D)” value ([2]; CuSO4.1mM) was 10.5746. For the same molecule, the “Growth (Fig. S2D)” value ([2]; CuSO4.5mM) was 8.442, the “Growth (Fig. S2D)” value ([2]; Cycloheximide.0.05.uM) was 11.0561 and the “Growth (Fig. S2D)” value ([2]; Cycloheximide.0.2.uM) was 10.6665. For the same molecule, the “Growth (Fig. S2D)” value ([2]; Cycloheximide.0.5.uM) was 10.4823, the “Growth (Fig. S2D)” value ([2]; DMSO.2.) was 10.9822 and the “Growth (Fig. S2D)” value ([2]; DMSO.6.) was 9.9755. For the same molecule, the “Growth (Fig. S2D)” value ([2]; DMSO.8.) was 9.381, the “Growth (Fig. S2D)” value ([2]; Ethanol.2.) was 10.76 and the “Growth (Fig. S2D)” value ([2]; Ethanol.6.) was 10.427. For the same molecule, the “Growth (Fig. S2D)” value ([2]; Ethanol.8.) was 10.4864, the “Growth (Fig. S2D)” value ([2]; Galactose.2.) was 10.7856 and the “Growth (Fig. S2D)” value ([2]; Glycerol.2.) was 10.3292. For the same molecule, the “Growth (Fig. S2D)” value ([2]; Hydroxyurea.25mM) was 10.7632, the “Growth (Fig. S2D)” value ([2]; Hygromycin.190uM) was 10.9263 and the “Growth (Fig. S2D)” value ([2]; Hygromycin.19uM) was 10.9545. For the same molecule, the “Growth (Fig. S2D)” value ([2]; Hygromycin.95uM) was 10.9494, the “Growth (Fig. S2D)” value ([2]; MMS.0.004.) was 10.9625 and the “Growth (Fig. S2D)” value ([2]; MMS.0.02.) was 10.8338. For the same molecule, the “Growth (Fig. S2D)” value ([2]; MMS.0.04.) was 10.264, the “Growth (Fig. S2D)” value ([2]; Menadione.100uM) was 10.4792 and the “Growth (Fig. S2D)” value ([2]; Menadione.200uM) was 10.398. For the same molecule, the “Growth (Fig. S2D)” value ([2]; Menadione.50uM) was 10.8403, the “Growth (Fig. S2D)” value ([2]; NaCl.0.25M) was 10.7336 and the “Growth (Fig. S2D)” value ([2]; NaCl.1M) was 10.1964. The “Growth (Fig. S2D)” value ([2]; Nitroquinoline.10uM) was 10.6457, the “Growth (Fig. S2D)” value ([2]; Nitroquinoline.50uM) was 10.6448 and the “Growth (Fig. S2D)” value ([2]; Nystatin.0.01uM) was 10.9455. The “Growth (Fig. S2D)” value ([2]; Nystatin.0.1uM) was 11.0177, the “Growth (Fig. S2D)” value ([2]; Raffinose.2.) was 10.9059 and the “Growth (Fig. S2D)” value ([2]; Rapamycin.10nM) was 9.962. The “Growth (Fig. S2D)” value ([2]; Rapamycin.50nM) was 9.216, the “Growth (Fig. S2D)” value ([2]; SC.pH3) was 10.4509 and the “Growth (Fig. S2D)” value ([2]; SC.pH6) was 10.9947. For the same molecule, the “Growth (Fig. S2D)” value ([2]; SDS.0.01.) was 10.9398, the “Growth (Fig. S2D)” value ([2]; SDS.0.02.) was 10.9447 and the “Growth (Fig. S2D)” value ([2]; SDS.0.05.) was 10.807. The “Growth (Fig. S2D)” value ([2]; Sorbitol.10mM) was 10.9819, the “Growth (Fig. S2D)” value ([2]; Sorbitol.1mM) was 10.9741 and the “Growth (Fig. S2D)” value ([2]; Sorbitol.5mM) was 10.8941.

B4: YOR081C_2 (protein, UniProt Q12043 1-749, looked up)
Triacylglycerol lipase 5: MSNTLPVTEFLLSKYYELSNTPATDSSSLFKWLYHKTLSRKQLLISDLSSQKKHAISYDQWNDIASRLDDLTGLSEWKTIDESSLYNYKLLQDLTIRMRHLRTTHDYHRLLYLIRTKWVRNLGNMNNVNLYRHSHTGTKQIIHDYLEESQAVLTALIHQSNMNDHYLLGILQQTRRNIGRTALVLSGGSTFGLFHIGVLAALFESDLMPKVISGSSAGAIVASIFCVHTTQEIPSLLTNVLNMEFNIFNDDNSKSPNENLLIKISRFCQNGTWFNNQPLINTMLSFLGNLTFREAYNKTGKILNITVSPASIYEQPKLLNNLTAPNVLIWSAVCASCSLPGVFPSTPLFEKDPHTGKIKEWGATNLHLSNMKFMDGSVDNDMPISRLSEMFNVDHIIACQVNIHVFPLLKFSNTCVGGEIEKEITARFRNQVTKIFKFFSDETIHFLDILKELEFHPYLMTKLKHLFLQQYSGNVTILPDLSMVGQFHEVLKNPSQLFLLHQTTLGARATWPKISMIQNNCGQEFALDKAITFLKEKIIISSSIKNPLQFYQPRFSEQIKSLSIMDADLPGVDLEESSSNSLSIIKSPNKTAAPGRFPLQPLPSPSSTFNKRKMDMLSPSPSPSTSPQRSKSSFTQQGTRQKANSLSFAIGASSLRLKKSPLKVPSRPQFKKRSSYYNQNMSAEMRKNRKKSGTISSYDVQTNSEDFPIPAIENGSFDNTLFNPSRFPMDAMSAATNDNFMNNSDIFQN
B4 was tested, and the “Ratio (Deletedscore / WTscore)” value ([1]; bait LSB3) was 1.383.
